Test [1] concerns the target T1, recombinant Plasmodium falciparum circumsporozoite protein (rPfCSP) (Plasmodium falciparum 3D7, UniProt Q7K740 19-374). Briefly: ITC; first site (KD1). (In general: ITC needs no label: the signal is the heat of the interaction.)
Test [2] has as its target T1, recombinant Plasmodium falciparum …. Briefly: ITC; second site (KD2).

T1 sequence (Q7K740 19-374): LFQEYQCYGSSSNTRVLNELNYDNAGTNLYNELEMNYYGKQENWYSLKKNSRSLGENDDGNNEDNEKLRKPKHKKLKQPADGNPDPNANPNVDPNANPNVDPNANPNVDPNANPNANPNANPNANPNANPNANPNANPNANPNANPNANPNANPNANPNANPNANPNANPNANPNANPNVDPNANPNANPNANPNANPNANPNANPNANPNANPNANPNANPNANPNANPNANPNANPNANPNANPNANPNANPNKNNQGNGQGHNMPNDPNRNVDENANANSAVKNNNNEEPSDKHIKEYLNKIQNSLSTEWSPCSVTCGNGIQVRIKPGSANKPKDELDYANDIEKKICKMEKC

B1: CIS43 human monoclonal antibody (antibody, V domains shown)
VH: QVQLVQSGAEVKKPGASVKVSCKASGYTFTSYAIHWVRQAPGQRLEWMGWIKAGNGNTRYSQKFQDRVTITRDTSTTTAYMELSSLRSEDTAVYYCALLTVLTPDDAFDIWGQGTMVTVSS
VL: not shown
In general, Kd refers to the free concentration of one partner at which half of the binding sites on the other are occupied at equilibrium, for simple one-to-one binding. As for B1, the Kd in test [1] was 7.9 nM; in test [2] it was 42 nM.
